In PMC5796856 (Molecular microbiology, 2018):
Changes are numbered by the printed parent chain. In names and notes the source's numbering stands. One block for each molecule: values may come before it.

Experiments:
[1] = target: FtsA (Escherichia coli, UniProt P0ABH0, K86A); assay: mant fluorescence titration; type: binding
[2] = target: T1, FtsA (Escherichia coli, UniProt P0ABH0); assay: mant fluorescence titration; type: binding
T1 sequence (P0ABH0 1-420): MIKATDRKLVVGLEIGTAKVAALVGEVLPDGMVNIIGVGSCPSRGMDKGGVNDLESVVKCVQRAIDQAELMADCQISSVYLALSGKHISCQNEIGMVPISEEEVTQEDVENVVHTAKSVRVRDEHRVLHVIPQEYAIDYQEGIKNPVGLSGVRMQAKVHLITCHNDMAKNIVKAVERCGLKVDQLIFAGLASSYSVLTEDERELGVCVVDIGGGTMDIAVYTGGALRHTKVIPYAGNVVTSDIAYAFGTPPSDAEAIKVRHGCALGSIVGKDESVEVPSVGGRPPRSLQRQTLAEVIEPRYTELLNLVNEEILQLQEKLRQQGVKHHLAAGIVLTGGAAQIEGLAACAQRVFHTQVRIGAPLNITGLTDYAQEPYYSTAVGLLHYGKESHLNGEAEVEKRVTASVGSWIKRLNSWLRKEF

[3] = target: FtsA (E. coli) (UniProt P0ABH0); assay: co-sedimentation
[4] = target: T2, FtsA (E. coli, UniProt P0ABH0 1-420); assay: confocal fluorescence microscopy of recruitment to vesicles in vitro
T2 sequence (looked up): T1 sequence (P0ABH0 1-420)

[5] = target: the molecule itself; assay: sedimentation of polymers by ultracentrifugation
[6] = target: the molecule itself; assay: SEC

FtsA (Escherichia coli, UniProt P0ABH0, K86A), sequence (P0ABH0 whole entry K86A): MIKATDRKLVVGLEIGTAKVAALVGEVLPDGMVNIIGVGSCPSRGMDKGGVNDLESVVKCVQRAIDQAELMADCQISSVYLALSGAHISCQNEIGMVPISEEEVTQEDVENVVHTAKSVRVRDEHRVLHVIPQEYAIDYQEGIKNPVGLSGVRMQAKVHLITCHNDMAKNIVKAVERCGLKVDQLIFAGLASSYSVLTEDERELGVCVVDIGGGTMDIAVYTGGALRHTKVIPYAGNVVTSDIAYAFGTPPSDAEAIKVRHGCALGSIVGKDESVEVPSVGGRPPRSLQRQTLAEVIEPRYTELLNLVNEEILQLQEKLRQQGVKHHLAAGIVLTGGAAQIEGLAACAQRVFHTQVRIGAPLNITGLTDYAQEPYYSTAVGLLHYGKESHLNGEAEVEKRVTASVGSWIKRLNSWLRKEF

Kd [1]: 27.9 ± 0.5 µM | Kd [2]: 26.2 ± 3 µM
Molecule: CNc1ccccc1C(=O)O[C@H]1[C@@H](O)[C@H](n2cnc3c(N)ncnc32)O[C@@H]1CO[P@@](=O)(O)O[P@](=O)(O)OP(=O)(O)O [mant-ATP]

percent of FtsZ in the pellet [3]: 35.6%
Molecule: FtsZ(R379E) (from UniProt P0A9A6 1-383) (natural protein)

binding result [4]: binds
B1: FL-FtsZ (natural protein, E. coli, UniProt P0A9A6 1-383, looked up)
chain: MFEPMELTNDAVIKVIGVGGGGGNAVEHMVRERIEGVEFFAVNTDAQALRKTAVGQTIQIGSGITKGLGAGANPEVGRNAADEDRDALRAALEGADMVFIAAGMGGGTGTGAAPVVAEVAKDLGILTVAVVTKPFNFEGKKRMAFAEQGITELSKHVDSLITIPNDKLLKVLGRGISLLDAFGAANDVLKGAVQGIAELITRPGLMNVDFADVRTVMSEMGYAMMGSGVASGEDRAEEAAEMAISSPLLEDIDLSGARGVLVNITAGFDLRLDEFETVGNTIRAFASDNATVVIGTSLDPDMNDELRVTVVATGIGMDKRPEITLVTNKQVQQPVMDRYQQHGMAPLTQEQKPVAKVVNDNAPQTAKEPDYLDIPAFLRKQAD
modifications: Alexa Fluor 488 label

B2: FtsZ (natural protein, E. coli, UniProt P0A9A6 1-383, looked up)
chain: B1 chain
binding result [5]: binds

B3: FtsZ(R379E) (natural protein, E. coli, UniProt P0A9A6 1-383, looked up)
chain: B1 chain with R379E
binding result [5]: binds

B4: FtsA(ΔMTS) (domain or fragment, E. coli, UniProt P0ABH0 1-404, looked up)
chain: MIKATDRKLVVGLEIGTAKVAALVGEVLPDGMVNIIGVGSCPSRGMDKGGVNDLESVVKCVQRAIDQAELMADCQISSVYLALSGKHISCQNEIGMVPISEEEVTQEDVENVVHTAKSVRVRDEHRVLHVIPQEYAIDYQEGIKNPVGLSGVRMQAKVHLITCHNDMAKNIVKAVERCGLKVDQLIFAGLASSYSVLTEDERELGVCVVDIGGGTMDIAVYTGGALRHTKVIPYAGNVVTSDIAYAFGTPPSDAEAIKVRHGCALGSIVGKDESVEVPSVGGRPPRSLQRQTLAEVIEPRYTELLNLVNEEILQLQEKLRQQGVKHHLAAGIVLTGGAAQIEGLAACAQRVFHTQVRIGAPLNITGLTDYAQEPYYSTAVGLLHYGKESHLNGEAEVEKRVTAS
stoichiometry N [6]: 2
